B1: V331L: ASNp amylosucrase single mutant (protein, UniProt Q9ZEU2 1-636, looked up, variant V331L)
Amylosucrase: MLTPTQQVGLILQYLKTRILDIYTPEQRAGIEKSEDWRQFSRRMDTHFPKLMNELDSVYGNNEALLPMLEMLLAQAWQSYSQRNSSLKDIDIARENNPDWILSNKQVGGVCYVDLFAGDLKGLKDKIPYFQELGLTYLHLMPLFKCPEGKSDGGYAVSSYRDVNPALGTIGDLREVIAALHEAGISAVVDFIFNHTSNEHEWAQRCAAGDPLFDNFYYIFPDRRMPDQYDRTLREIFPDQHPGGFSQLEDGRWVWTTFNSFQWDLNYSNPWVFRAMAGEMLFLANLGVDILRMDAVAFIWKQMGTSCENLPQAHALIRAFNAVMRIAAPALFFKSEAIVHPDQVVQYIGQDECQIGYNPLQMALLWNTLATREVNLLHQALTYRHNLPEHTAWVNYVRSHDDIGWTFADEDAAYLGISGYDHRQFLNRFFVNRFDGSFARGVPFQYNPSTGDCRVSGTAAALVGLAQDDPHAVDRIKLLYSIALSTGGLPLIYLGDEVGTLNDDDWSQDSNKSDDSRWAHRPRYNEALYAQRNDPSTAAGQIYQGLRHMIAVRQSNPRFDGGRLVTFNTNNKHIIGYIRNNALLAFGNFSEYPQTVTAHTLQAMPFKAHDLIGGKTVSLNQDLTLQPYQVMWLEIA
B2: V331M: ASNp amylosucrase single mutant (protein, UniProt Q9ZEU2 1-636, looked up, variant V331M)
Amylosucrase: MLTPTQQVGLILQYLKTRILDIYTPEQRAGIEKSEDWRQFSRRMDTHFPKLMNELDSVYGNNEALLPMLEMLLAQAWQSYSQRNSSLKDIDIARENNPDWILSNKQVGGVCYVDLFAGDLKGLKDKIPYFQELGLTYLHLMPLFKCPEGKSDGGYAVSSYRDVNPALGTIGDLREVIAALHEAGISAVVDFIFNHTSNEHEWAQRCAAGDPLFDNFYYIFPDRRMPDQYDRTLREIFPDQHPGGFSQLEDGRWVWTTFNSFQWDLNYSNPWVFRAMAGEMLFLANLGVDILRMDAVAFIWKQMGTSCENLPQAHALIRAFNAVMRIAAPAMFFKSEAIVHPDQVVQYIGQDECQIGYNPLQMALLWNTLATREVNLLHQALTYRHNLPEHTAWVNYVRSHDDIGWTFADEDAAYLGISGYDHRQFLNRFFVNRFDGSFARGVPFQYNPSTGDCRVSGTAAALVGLAQDDPHAVDRIKLLYSIALSTGGLPLIYLGDEVGTLNDDDWSQDSNKSDDSRWAHRPRYNEALYAQRNDPSTAAGQIYQGLRHMIAVRQSNPRFDGGRLVTFNTNNKHIIGYIRNNALLAFGNFSEYPQTVTAHTLQAMPFKAHDLIGGKTVSLNQDLTLQPYQVMWLEIA
B3: V331N: ASNp amylosucrase single mutant (protein, UniProt Q9ZEU2 1-636, looked up, variant V331N)
Amylosucrase: MLTPTQQVGLILQYLKTRILDIYTPEQRAGIEKSEDWRQFSRRMDTHFPKLMNELDSVYGNNEALLPMLEMLLAQAWQSYSQRNSSLKDIDIARENNPDWILSNKQVGGVCYVDLFAGDLKGLKDKIPYFQELGLTYLHLMPLFKCPEGKSDGGYAVSSYRDVNPALGTIGDLREVIAALHEAGISAVVDFIFNHTSNEHEWAQRCAAGDPLFDNFYYIFPDRRMPDQYDRTLREIFPDQHPGGFSQLEDGRWVWTTFNSFQWDLNYSNPWVFRAMAGEMLFLANLGVDILRMDAVAFIWKQMGTSCENLPQAHALIRAFNAVMRIAAPANFFKSEAIVHPDQVVQYIGQDECQIGYNPLQMALLWNTLATREVNLLHQALTYRHNLPEHTAWVNYVRSHDDIGWTFADEDAAYLGISGYDHRQFLNRFFVNRFDGSFARGVPFQYNPSTGDCRVSGTAAALVGLAQDDPHAVDRIKLLYSIALSTGGLPLIYLGDEVGTLNDDDWSQDSNKSDDSRWAHRPRYNEALYAQRNDPSTAAGQIYQGLRHMIAVRQSNPRFDGGRLVTFNTNNKHIIGYIRNNALLAFGNFSEYPQTVTAHTLQAMPFKAHDLIGGKTVSLNQDLTLQPYQVMWLEIA
B4: V331P: ASNp amylosucrase single mutant (protein, UniProt Q9ZEU2 1-636, looked up, variant V331P)
Amylosucrase: MLTPTQQVGLILQYLKTRILDIYTPEQRAGIEKSEDWRQFSRRMDTHFPKLMNELDSVYGNNEALLPMLEMLLAQAWQSYSQRNSSLKDIDIARENNPDWILSNKQVGGVCYVDLFAGDLKGLKDKIPYFQELGLTYLHLMPLFKCPEGKSDGGYAVSSYRDVNPALGTIGDLREVIAALHEAGISAVVDFIFNHTSNEHEWAQRCAAGDPLFDNFYYIFPDRRMPDQYDRTLREIFPDQHPGGFSQLEDGRWVWTTFNSFQWDLNYSNPWVFRAMAGEMLFLANLGVDILRMDAVAFIWKQMGTSCENLPQAHALIRAFNAVMRIAAPAPFFKSEAIVHPDQVVQYIGQDECQIGYNPLQMALLWNTLATREVNLLHQALTYRHNLPEHTAWVNYVRSHDDIGWTFADEDAAYLGISGYDHRQFLNRFFVNRFDGSFARGVPFQYNPSTGDCRVSGTAAALVGLAQDDPHAVDRIKLLYSIALSTGGLPLIYLGDEVGTLNDDDWSQDSNKSDDSRWAHRPRYNEALYAQRNDPSTAAGQIYQGLRHMIAVRQSNPRFDGGRLVTFNTNNKHIIGYIRNNALLAFGNFSEYPQTVTAHTLQAMPFKAHDLIGGKTVSLNQDLTLQPYQVMWLEIA
B5: V331Q: ASNp amylosucrase single mutant (protein, UniProt Q9ZEU2 1-636, looked up, variant V331Q)
Amylosucrase: MLTPTQQVGLILQYLKTRILDIYTPEQRAGIEKSEDWRQFSRRMDTHFPKLMNELDSVYGNNEALLPMLEMLLAQAWQSYSQRNSSLKDIDIARENNPDWILSNKQVGGVCYVDLFAGDLKGLKDKIPYFQELGLTYLHLMPLFKCPEGKSDGGYAVSSYRDVNPALGTIGDLREVIAALHEAGISAVVDFIFNHTSNEHEWAQRCAAGDPLFDNFYYIFPDRRMPDQYDRTLREIFPDQHPGGFSQLEDGRWVWTTFNSFQWDLNYSNPWVFRAMAGEMLFLANLGVDILRMDAVAFIWKQMGTSCENLPQAHALIRAFNAVMRIAAPAQFFKSEAIVHPDQVVQYIGQDECQIGYNPLQMALLWNTLATREVNLLHQALTYRHNLPEHTAWVNYVRSHDDIGWTFADEDAAYLGISGYDHRQFLNRFFVNRFDGSFARGVPFQYNPSTGDCRVSGTAAALVGLAQDDPHAVDRIKLLYSIALSTGGLPLIYLGDEVGTLNDDDWSQDSNKSDDSRWAHRPRYNEALYAQRNDPSTAAGQIYQGLRHMIAVRQSNPRFDGGRLVTFNTNNKHIIGYIRNNALLAFGNFSEYPQTVTAHTLQAMPFKAHDLIGGKTVSLNQDLTLQPYQVMWLEIA
B6: V331R: ASNp amylosucrase single mutant (protein, UniProt Q9ZEU2 1-636, looked up, variant V331R)
Amylosucrase: MLTPTQQVGLILQYLKTRILDIYTPEQRAGIEKSEDWRQFSRRMDTHFPKLMNELDSVYGNNEALLPMLEMLLAQAWQSYSQRNSSLKDIDIARENNPDWILSNKQVGGVCYVDLFAGDLKGLKDKIPYFQELGLTYLHLMPLFKCPEGKSDGGYAVSSYRDVNPALGTIGDLREVIAALHEAGISAVVDFIFNHTSNEHEWAQRCAAGDPLFDNFYYIFPDRRMPDQYDRTLREIFPDQHPGGFSQLEDGRWVWTTFNSFQWDLNYSNPWVFRAMAGEMLFLANLGVDILRMDAVAFIWKQMGTSCENLPQAHALIRAFNAVMRIAAPARFFKSEAIVHPDQVVQYIGQDECQIGYNPLQMALLWNTLATREVNLLHQALTYRHNLPEHTAWVNYVRSHDDIGWTFADEDAAYLGISGYDHRQFLNRFFVNRFDGSFARGVPFQYNPSTGDCRVSGTAAALVGLAQDDPHAVDRIKLLYSIALSTGGLPLIYLGDEVGTLNDDDWSQDSNKSDDSRWAHRPRYNEALYAQRNDPSTAAGQIYQGLRHMIAVRQSNPRFDGGRLVTFNTNNKHIIGYIRNNALLAFGNFSEYPQTVTAHTLQAMPFKAHDLIGGKTVSLNQDLTLQPYQVMWLEIA

What was measured:
[1] = apigenin glucosylation acceptor reaction with recombinant glucansucrases (microplate screening); format: biochemical; settings: sucrose 146 mM, apigenin 2.5 mM, 3% DMSO, 30° C., 24 h; HPLC-UV 340 nm peak areas
Method: (§1) The enzymatic extracts obtained are used to carry out the flavonoid glucosylation enzymatic screening reactions. The enzymatic activity of each centrifuged cell lysate is evaluated in the microplate format, by final weight after 30 minutes incubation in the presence of a final concentration of 146 mM of sucrose, by assaying the reducing sugars with 3,5-dinitrosalicylic acid (DNS). Finally, after dilution in ultrapure water, the absorbance is read at 540 nm.
(§2) The flavonoid acceptor reactions are then carried out in deep-well microplates, in a volume of 300 μl, at final concentrations of sucrose of 146 mM and of flavonoid of 2.5 mM (apigenin) or 5 mM (naringenin) (initially dissolved in 100% DMSO), and 140 μl of centrifuged cell lysate.
(§3) The final DMSO concentration in the reaction medium is 3% (v/v).
(§4) The incubation is carried out at 30° C. and at 700 rpm. After 24 hours, the enzymes are denatured at 95° C. for 15 minutes. These microplates are stored at −80° C. with a view to rapid evaluation of the flavonoid glucosylation by liquid-phase chromatography coupled to mass spectrometry (HPLC-MS or LC-MS).
(§5) With a view to their analyses by HPLC-MS, the extensively homogenized reaction media are diluted to 1/30th in DMSO. The separation of the flavonoids and of their glucosylated forms is carried out in reverse phase with a ProntoSlL Eurobond® 53×3.0 mm 120-3-C18-AQ column (porosity of 120 Å, particle size of 3 μm, C18 grafting, Bischoff Chromatography, Germany).
(§6) The flavonoid glucosylation efficiency was determined from the following formula: Glucosylation efficiency=(Σ(area of the peak of glucosylated flavonoid(s)))/(Σ(area of the peak of glucosylated flavonoid(s))+area of the peak of residual aglycone flavonoid)×100
(§7) The flavonoid glucosylation efficiencies, expressed as a percentage, were calculated from the areas of the peaks of the various products analyzed, as described in example 1, by HPLC with a UV detector (340 nm) after 24 h of reaction.

[2] = naringenin glucosylation acceptor reaction with recombinant glucansucrases (microplate screening); format: biochemical; settings: sucrose 146 mM, naringenin 5 mM, 3% DMSO, 30° C., 24 h; HPLC-UV 340 nm peak areas
Method: as §1, §2, §3, §4, §5, §6
as §7, with “The flavonoid glucosylation efficiency was determined from the formula set out in example 2. The” for “The”, “(λ340 nm),” for “(340 nm)”

Row | Molecule | apigenin glucosylation efficiency [1] [%] | naringenin glucosylation efficiency [2] [%]
1 | B1 | 0.3 | 0.0
2 | B2 | 0.1 | 0.0
3 | B3 | 1.0 | 0.0
4 | B4 | 0.0 | 0.0
5 | B5 | 0.2 | 6.8
6 | B6 | 0.2 | 0.0
